Measured values: the Immune Epitope Database (IEDB)

How the values were obtained:
HLA-B*07:02 [1] = assay: IEDB peptide-MHC binding, purified MHC/competitive/fluorescence; ≥ and ≤ were set here for values at or beyond the usual limits of such assays
HLA-A*02:01 [2] = assay: IEDB peptide-MHC binding, purified MHC/competitive/fluorescence; filed as Kd, often an IC50 or EC50 that approximates it; ≥ and ≤ were set here for values at or beyond the usual limits of such assays
HLA-A*02:19 [3] = assay: as above; conditions: source organism: Toxoplasma gondii RH
HLA-B*08:01 = assay: IEDB peptide-MHC binding, purified MHC/competitive/fluorescence; ≥ and ≤ were set here for values at or beyond the usual limits of such assays
HLA-C*12:03 = assay: IEDB peptide-MHC binding, purified MHC/direct/fluorescence; filed as Kd, often an IC50 or EC50 that approximates it; ≥ and ≤ were set here for values at or beyond the usual limits of such assays
HLA-A*03:01 [4] = assay: IEDB peptide-MHC binding, purified MHC/competitive/radioactivity; filed as Kd, often an IC50 or EC50 that approximates it; ≥ and ≤ were set here for values at or beyond the usual limits of such assays; conditions: source organism: Vaccinia virus WR
HLA-B*35:01 = assay: as above; conditions: source organism: Vaccinia virus WR
HLA-B*53:01 = assay: as above; conditions: source organism: Vaccinia virus WR
HLA-B*51:01 [5] = assay: as above; conditions: source organism: Vaccinia virus WR
HLA-A*68:01 = assay: as above; conditions: source organism: Vaccinia virus WR
HLA-B*07:02 [6] = assay: as above; conditions: source organism: Vaccinia virus WR
HLA-A*11:01 = assay: as above; conditions: source organism: Vaccinia virus WR
HLA-A*31:01 = assay: as above; conditions: source organism: Vaccinia virus WR
HLA-B*54:01 = assay: as above; conditions: source organism: Vaccinia virus WR
HLA-A*33:01 = assay: as above; conditions: source organism: Vaccinia virus WR
HLA-C*15:02 = assay: IEDB peptide-MHC binding, purified MHC/direct/fluorescence; filed as Kd, often an IC50 or EC50 that approximates it; ≥ and ≤ were set here for values at or beyond the usual limits of such assays
HLA-C*07:02 = assay: as above
HLA-B*58:01 = assay: as above
HLA-A*02:01 [7] = assay: IEDB peptide-MHC binding, purified MHC/competitive/fluorescence; ≥ and ≤ were set here for values at or beyond the usual limits of such assays; conditions: source organism: Vaccinia virus Copenhagen
HLA-B*39:01 = assay: IEDB peptide-MHC binding, purified MHC/competitive/fluorescence; filed as Kd, often an IC50 or EC50 that approximates it; ≥ and ≤ were set here for values at or beyond the usual limits of such assays
HLA-A*24:02 = assay: IEDB peptide-MHC binding, purified MHC/competitive/fluorescence; ≥ and ≤ were set here for values at or beyond the usual limits of such assays; conditions: source organism: Zaire ebolavirus
HLA-B*15:17 [8] = assay: IEDB peptide-MHC binding, purified MHC/direct/fluorescence; filed as Kd, often an IC50 or EC50 that approximates it; ≥ and ≤ were set here for values at or beyond the usual limits of such assays; conditions: source organism: Salmonella enterica subsp. enterica serovar Typhimurium
HLA-B*57:01 [9] = assay: as above; conditions: source organism: Salmonella enterica
HLA-A*03:01 [10] = assay: as above; conditions: source organism: Zaire ebolavirus
HLA-A*23:01 = assay: as above; conditions: source organism: Zaire ebolavirus
HLA-A*02:11 = assay: as above; conditions: source organism: Zaire ebolavirus
HLA-A*29:02 = assay: as above; conditions: source organism: Zaire ebolavirus
HLA-A*02:03 = assay: as above; conditions: source organism: Zaire ebolavirus
HLA-B*15:01 [11] = assay: as above; conditions: source organism: Reston ebolavirus - Reston
HLA-A*02:12 = assay: as above; conditions: source organism: Zaire ebolavirus
HLA-A*02:19 [12] = assay: as above; conditions: source organism: Zaire ebolavirus
HLA-A*68:02 = assay: as above; conditions: source organism: Zaire ebolavirus
HLA-A*02:16 = assay: as above; conditions: source organism: Zaire ebolavirus
HLA-A*24:03 = assay: as above; conditions: source organism: Zaire ebolavirus
HLA-B*46:01 = assay: IEDB peptide-MHC binding, purified MHC/competitive/fluorescence; filed as Kd, often an IC50 or EC50 that approximates it; ≥ and ≤ were set here for values at or beyond the usual limits of such assays; conditions: source organism: Zaire ebolavirus
HLA-A*69:01 = assay: as above; conditions: source organism: Zaire ebolavirus
HLA-B*51:01 [13] = assay: as above; conditions: source organism: Zaire ebolavirus
HLA-B*18:01 = assay: as above; conditions: source organism: Zaire ebolavirus
HLA-B*15:17 [14] = assay: as above; conditions: source organism: Zaire ebolavirus
HLA-B*27:03 = assay: as above; conditions: source organism: Zaire ebolavirus
HLA-B*57:01 [15] = assay: as above; conditions: source organism: Zaire ebolavirus
HLA-A*26:01 = assay: as above; conditions: source organism: Zaire ebolavirus
HLA-B*40:01 = assay: IEDB peptide-MHC binding, purified MHC/direct/fluorescence; filed as Kd, often an IC50 or EC50 that approximates it; ≥ and ≤ were set here for values at or beyond the usual limits of such assays; conditions: source organism: Sudan ebolavirus - Maleo (1979)
HLA-B*15:01 [16] = assay: IEDB peptide-MHC binding, purified MHC/competitive/fluorescence; filed as Kd, often an IC50 or EC50 that approximates it; ≥ and ≤ were set here for values at or beyond the usual limits of such assays; conditions: source organism: Zaire ebolavirus
[17] = source organism: Zaire ebolavirus
[18] = source organism: Vaccinia virus Copenhagen
[19] = source organism: Vaccinia virus L-IPV
[20] = source organism: Bacillus anthracis str. A2012
[21] = source organism: Bacillus anthracis str. A0488

Sequence: SPRMLTPIN
- IC50 (HLA-B*07:02 [1]; [17]): 5.08 µM

Sequence: SIFERIREA
- Kd (HLA-A*02:01 [2]; source organism: Toxoplasma gondii RH): 0.002 µM
- Kd (HLA-A*02:19 [3]): 1.15 µM

Sequence: SLSKRERQL
- IC50 (HLA-B*07:02 [1]; [18]): 57.5 µM
- IC50 (HLA-B*08:01; [18]): ≥ 76.3 µM

Sequence: VAANIVLTV
- Kd (HLA-C*12:03; source organism: Callithrix jacchus): ≤ 0.001 µM
- Kd (HLA-A*02:01 [2]; source organism: Homo sapiens): 0.0145 µM

Sequence: RLYDYFTRV
- Kd (HLA-A*03:01 [4]): ≥ 59.3 µM
- Kd (HLA-B*35:01): ≥ 31.5 µM
- Kd (HLA-B*53:01): ≥ 78.2 µM
- Kd (HLA-B*51:01 [5]): ≥ 77.5 µM
- Kd (HLA-A*68:01): ≥ 77.7 µM
- Kd (HLA-B*07:02 [6]): 16.8 µM
- Kd (HLA-A*11:01): 0.155 µM
- Kd (HLA-A*31:01): 0.411 µM
- Kd (HLA-B*54:01): ≥ 60.7 µM
- Kd (HLA-A*33:01): ≥ 77.7 µM
- Kd (HLA-C*12:03; [19]): 0.932 µM
- Kd (HLA-A*02:01 [2]; [19]): 0.0039 µM

Sequence: TINDLKMML
- Kd (HLA-C*15:02; [18]): 0.043 µM

Sequence: FLIYFRSPL
- Kd (HLA-C*07:02; [20]): 1.44 µM
- Kd (HLA-A*02:01 [2]; [20]): 0.0106 µM

Sequence: VSARIAALF
- Kd (HLA-B*58:01; source organism: Mycobacterium tuberculosis): 0.036 µM
- Kd (HLA-C*15:02; source organism: Mycobacterium tuberculosis H37Rv): 3.14 µM

Sequence: QPEWFRNIL
- IC50 (HLA-B*07:02 [1]; source organism: Influenza A virus (A/Oklahoma/309/2006(H3N2))): 0.188 µM

Sequence: FALKKLIID
- IC50 (HLA-A*02:01 [7]): ≥ 161 µM
- IC50 (HLA-B*08:01; [18]): ≥ 211 µM

Sequence: FRMTENVPL
- Kd (HLA-C*07:02; [21]): 0.048 µM
- Kd (HLA-B*39:01; [21]): 0.0017 µM

Sequence: FEEMYRHIL
- IC50 (HLA-A*24:02): 25.8 µM
- IC50 (HLA-B*08:01; [17]): ≥ 81.4 µM

Sequence: TTHHTIPLL
- Kd (HLA-B*58:01; source organism: Salmonella enterica subsp. enterica serovar Typhimurium): 3.24 µM
- Kd (HLA-C*15:02; source organism: Salmonella enterica subsp. enterica serovar Typhi str. CT18): ≥ 20 µM
- Kd (HLA-B*15:17 [8]): 0.0659 µM
- Kd (HLA-B*57:01 [9]): 4 µM

Sequence: DSRPQKIWM
- IC50 (HLA-B*08:01; [17]): ≥ 95.4 µM

Sequence: WQQWDRQSL
- Kd (HLA-A*03:01 [10]): ≥ 20 µM
- Kd (HLA-A*23:01): ≥ 20 µM
- Kd (HLA-A*02:11): ≥ 20 µM
- Kd (HLA-A*29:02): ≥ 20 µM
- Kd (HLA-A*02:03): ≥ 20 µM
- Kd (HLA-B*15:01 [11]): 0.127 µM
- Kd (HLA-A*02:12): ≥ 20 µM
- Kd (HLA-A*02:19 [12]): ≥ 20 µM
- Kd (HLA-A*68:02): ≥ 20 µM
- Kd (HLA-A*02:16): ≥ 20 µM
- Kd (HLA-A*24:03): ≥ 20 µM
- Kd (HLA-B*46:01): ≥ 20 µM
- Kd (HLA-A*02:01 [2]; [17]): ≥ 20 µM
- Kd (HLA-A*69:01): ≥ 20 µM
- Kd (HLA-B*51:01 [13]): ≥ 20 µM
- Kd (HLA-B*18:01): ≥ 20 µM
- Kd (HLA-B*15:17 [14]): ≥ 20 µM
- Kd (HLA-B*27:03): ≥ 20 µM
- Kd (HLA-B*57:01 [15]): ≥ 20 µM
- Kd (HLA-A*26:01): ≥ 20 µM

Sequence: NFHQKKNEI
- IC50 (HLA-A*24:02): 8.08 µM
- IC50 (HLA-B*08:01; [17]): 66.1 µM

Sequence: YPTAWQSVG
- IC50 (HLA-B*07:02 [1]; [17]): ≥ 174 µM
- IC50 (HLA-A*24:02): ≥ 209 µM

Sequence: ALPPRAFEL
- Kd (HLA-C*07:02; source organism: Mycobacterium tuberculosis F11): 0.085 µM

Sequence: DETFVHSGF
- Kd (HLA-A*03:01 [10]): ≥ 20 µM
- Kd (HLA-B*40:01): ≥ 20 µM
- Kd (HLA-A*23:01): ≥ 20 µM
- Kd (HLA-A*02:11): ≥ 20 µM
- Kd (HLA-A*29:02): ≥ 20 µM
- Kd (HLA-A*02:03): ≥ 20 µM
- Kd (HLA-A*02:12): ≥ 20 µM
- Kd (HLA-A*02:19 [12]): ≥ 20 µM
- Kd (HLA-A*68:02): ≥ 20 µM
- Kd (HLA-A*02:16): ≥ 20 µM
- Kd (HLA-A*24:03): ≥ 20 µM
- Kd (HLA-B*46:01): ≥ 20 µM
- Kd (HLA-A*02:01 [2]; [17]): ≥ 20 µM
- Kd (HLA-A*69:01): ≥ 20 µM
- Kd (HLA-B*51:01 [13]): ≥ 20 µM
- Kd (HLA-B*39:01; [17]): ≥ 20 µM
- Kd (HLA-B*15:01 [16]): ≥ 20 µM
- Kd (HLA-B*15:17 [14]): ≥ 20 µM
- Kd (HLA-B*27:03): ≥ 20 µM
- Kd (HLA-B*57:01 [15]): ≥ 20 µM
- Kd (HLA-A*26:01): ≥ 20 µM

Sequence: YRSMIAFKL
- Kd (HLA-C*07:02; source organism: Entamoeba histolytica HM-1:IMSS): 0.045 µM
